Assay results from IntAct's records for PubMed 20691684.

B1: UBX domain-containing protein 2B (Mus musculus), Q0KL01 (parent)
chain: MAEGGRAEPEEQERGSSRPRPPSARDLQLALAELYEDEMKCKSSKPDRSTPATCRSPRTPPHRLYSGDHKYDGLHIVQPPTGKIVNELFKEAREHGAVPLNEATRSSREDKTKSFTGGGYRLGNSFYKRSEYIYGENQLQDVQVLLKLWRNGFSLDDGELRPYSDPTNAQFLESVKRGETPLELQRLVHGAQVNLDMEDHQDQEYIKPRLRFKAFSGEGQKLGSLTPEIVSTPSSPEEEDKSILNAAVLIDDSMPTTKIQIRLADGSRLVQRFNSTHRILDVRDFIVRSRPEFATTDFILVTSFPSKELTDETVTLQEADILNTVILQQLK
B2: NSFL1 cofactor p47 (Rattus norvegicus (Rat)), O35987 (parent)
chain: MAEERQDALREFVAVTGAEEDRARFFLESAGWDLQIALASFYEDGGDEDIVTISQATPSSVSRGTAPSDNRVTSFRDLIHDQDEEEEEEEGQRFYAGGSERSGQQIVGPPRKKSPNELVDDLFKGAKEHGAVAVERVTKSPGETSKPRPFAGGGYRLGAAPEEESAYVAGERRRHSGQDVHVVLKLWKTGFSLDNGDLRSYQDPSNAQFLESIRRGEVPAELRRLAHGGQVNLDMEDHRDEDFVKPKGAFKAFTGEGQKLGSTAPQVLNTSSPAQQAENEAKASSSILINEAEPTTNIQIRLADGGRLVQKFNHSHRISDIRLFIVDARPAMAATSFVLMTTFPNKELADENQTLKEANLLNAVIVQRLT

Variants of: B1
Conditions: with tera_rat Vcp
Target sequence in this assay (P46462 whole entry): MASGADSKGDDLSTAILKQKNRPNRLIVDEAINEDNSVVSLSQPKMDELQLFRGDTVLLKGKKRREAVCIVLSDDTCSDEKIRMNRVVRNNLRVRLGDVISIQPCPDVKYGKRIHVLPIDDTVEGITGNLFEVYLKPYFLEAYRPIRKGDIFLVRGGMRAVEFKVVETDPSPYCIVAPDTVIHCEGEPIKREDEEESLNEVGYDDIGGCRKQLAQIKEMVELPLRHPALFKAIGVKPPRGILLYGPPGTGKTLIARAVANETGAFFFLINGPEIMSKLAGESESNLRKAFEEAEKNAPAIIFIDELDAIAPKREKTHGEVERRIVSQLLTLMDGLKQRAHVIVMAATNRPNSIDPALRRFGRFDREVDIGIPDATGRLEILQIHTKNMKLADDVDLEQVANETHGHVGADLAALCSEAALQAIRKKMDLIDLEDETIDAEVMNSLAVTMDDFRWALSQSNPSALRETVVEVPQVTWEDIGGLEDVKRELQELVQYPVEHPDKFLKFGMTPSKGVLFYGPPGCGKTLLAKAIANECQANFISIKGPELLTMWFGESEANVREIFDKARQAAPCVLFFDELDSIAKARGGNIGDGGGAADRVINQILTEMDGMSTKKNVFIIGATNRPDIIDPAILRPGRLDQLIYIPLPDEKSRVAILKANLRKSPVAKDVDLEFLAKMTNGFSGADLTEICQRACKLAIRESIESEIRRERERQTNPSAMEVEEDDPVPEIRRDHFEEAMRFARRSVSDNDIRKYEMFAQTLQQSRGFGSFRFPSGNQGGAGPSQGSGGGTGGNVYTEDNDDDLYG

| effect of a mutation on the interaction | Variant |
| --- | --- |
| disrupting interaction | MAEGGRAEPEEQERGSSRPRPPSARDLQLALAELYEDEMKCKSSKPDRSTPATCRSPRTPPHRLYSGDHKYDGLHIVQPPTGKIVNELFKEAREHGAVPLNEATRSSREDKTKSFTGGGYRLGNSFYKRSEYIYGENQLQDVQVLLKLWRNGFSLDDGELRPYSDPTNAQFLESVKRGETPLELQRLVHGAQVNLDMEDHQDQEYIKPRLRFKASSGEGQKLGSLTPEIVSTPSSPEEEDKSILNAAVLIDDSMPTTKIQIRLADGSRLVQRFNSTHRILDVRDFIVRSRPEFATTDFILVTSFPSKELTDETVTLQEADILNTVILQQLK [F215S] |

Variants of: B2
Conditions: with tera_rat Vcp
Target sequence in this assay (P46462 whole entry): as the sequence (P46462 whole entry) above

| effect of a mutation on the interaction | Variant |
| --- | --- |
| disrupting interaction | MAEERQDALREFVAVTGAEEDRARFFLESAGWDLQIALASFYEDGGDEDIVTISQATPSSVSRGTAPSDNRVTSFRDLIHDQDEEEEEEEGQRFYAGGSERSGQQIVGPPRKKSPNELVDDLFKGAKEHGAVAVERVTKSPGETSKPRPFAGGGYRLGAAPEEESAYVAGERRRHSGQDVHVVLKLWKTGFSLDNGDLRSYQDPSNAQFLESIRRGEVPAELRRLAHGGQVNLDMEDHRDEDFVKPKGAFKASTGEGQKLGSTAPQVLNTSSPAQQAENEAKASSSILINEAEPTTNIQIRLADGGRLVQKFNHSHRISDIRLFIVDARPAMAATSFVLMTTFPNKELADENQTLKEANLLNAVIVQRLT [F253S] |

Variants of: B2
Conditions: with tera_mouse Vcp

| effect of a mutation on the interaction | Variant |
| --- | --- |
| disrupting interaction | MAEERQDALREFVAVTGAEEDRARFFLESAGWDLQIALASFYEDGGDEDIVTISQATPSSVSRGTAPSDNRVTSFRDLIHDQDEEEEEEEGQRFYAGGSERSGQQIVGPPRKKSPNELVDDLFKGAKEHGAVAVERVTKSPGETSKPRPFAGGGYRLGAAPEEESAYVAGERRRHSGQDVHVVLKLWKTGFSLDNGDLRSYQDPSNAQFLESIRRGEVPAELRRLAHGGQVNLDMEDHRDEDFVKPKGAFKASTGEGQKLGSTAPQVLNTSSPAQQAENEAKASSSILINEAEPTTNIQIRLADGGRLVQKFNHSHRISDIRLFIVDARPAMAATSFVLMTTFPNKELADENQTLKEANLLNAVIVQRLT [F253S] |
